CN113150131A (SHANGHAI PUBLIC HEALTH CLINICAL CT, dated 2021)
Like-named read-outs stand apart in the source and are kept apart here.

T1: 2C-121-270aa小肽段 #3 (CVA10病毒 (coxsackievirus A10))
T1 peptide: PGTGKSLATGIIARA

T2: 2C-121-270aa小肽段 #4 (CVA10病毒 (coxsackievirus A10))
T2 peptide: SLATGIIARAIADKY

B1: M3-8单克隆抗体 (M3-8 mAb) (antibody, V domains shown)
VH: QVQLQQSGAELVRPGASVKLSCKALGYTFADNEMHWVKQTPVHGLEWIGGIHPGSGGTAYNQKFKGKATLTADKSSSTAYMELSSLTSEDSAVYYCTRDYYWYDEGFDYWGQGTTLTVSS
VL: DIVMTQTPLSLPVSLGDQASISCRSSQSLVHSNGNTYLHWYLQKPGQSPELLIYKVSNRFSGVPDRFSGSGSGTDFTLKISRVEAEDLGVYFCSQSTHIPLTFGAGTKLELK
notes: also called M3-8细胞上清; 纯化的单克隆抗体(M3-8 mAb)
B2: M3-8重组抗体 (antibody, V domains shown)
VH: B1 VH
VL: B1 VL
notes: also called M3-8 mAb重组抗体

Legend:
2C-121-270aa小肽段 #3 = target: T1, 2C-121-270aa小肽段 #3; assay: ELISA on coated synthetic peptides
2C-121-270aa小肽段 #4 = target: T2, 2C-121-270aa小肽段 #4; assay: ELISA on coated synthetic peptides
CVB3病毒2C蛋白 [1] = target: T3, CVB3病毒2C蛋白 (CVB3, UniProt P03313 1101-1429)
T3 construct: domain: 2C蛋白

2C-121-270aa肽段 = target: T4, 2C-121-270aa肽段 (CVA10病毒 (coxsackievirus A10)); assay: western blot on truncated 2C fragments expressed in 293T cells
T4 construct: Expressed in 293T cells from pcDNA6.0 and detected with a Flag antibody, so it carries a Flag tag

CVA10病毒2C蛋白 = target: T5, CVA10病毒2C蛋白 (CVA10病毒 (coxsackievirus A10), UniProt Q65900 1112-1440); assay: western blot on virus-infected RD cells
T5 construct: In ELISA it was purified 2C protein from prokaryotic expression, coated on the plate; In western blot, immunofluorescence and flow cytometry it was the 2C protein made in CVA10-infected RD cells (intracellular); also called CVA10-2C

CVB3病毒2C蛋白 [2] = target: T3, CVB3病毒2C蛋白; remark: listed apart in the source

Binder	binding result (2C-121-270aa小肽段 #3)	binding result (2C-121-270aa小肽段 #4)	binding result (CVB3病毒2C蛋白 [1])	binding result (2C-121-270aa肽段)	binding result (CVA10病毒2C蛋白)	binding result (CVB3病毒2C蛋白 [2])
B1	binds	binds	no binding	binds	–	–
B2	–	–	–	–	binds	no binding
